For assay [1], the target named is SARS-CoV-2 S on pseudovirions (Wuhan Hu-1 / IL1/2020, last 18 amino acids removed) (SARS-CoV-2, UniProt P0DTC2 14-1273). As to the kind of experiment: cell-based or functional assay.
Assay [2] deals with T1, HCoV-OC43 spike antigens (bead panel) (HCoV-OC43, UniProt P36334 14-1297).
T1 sequence: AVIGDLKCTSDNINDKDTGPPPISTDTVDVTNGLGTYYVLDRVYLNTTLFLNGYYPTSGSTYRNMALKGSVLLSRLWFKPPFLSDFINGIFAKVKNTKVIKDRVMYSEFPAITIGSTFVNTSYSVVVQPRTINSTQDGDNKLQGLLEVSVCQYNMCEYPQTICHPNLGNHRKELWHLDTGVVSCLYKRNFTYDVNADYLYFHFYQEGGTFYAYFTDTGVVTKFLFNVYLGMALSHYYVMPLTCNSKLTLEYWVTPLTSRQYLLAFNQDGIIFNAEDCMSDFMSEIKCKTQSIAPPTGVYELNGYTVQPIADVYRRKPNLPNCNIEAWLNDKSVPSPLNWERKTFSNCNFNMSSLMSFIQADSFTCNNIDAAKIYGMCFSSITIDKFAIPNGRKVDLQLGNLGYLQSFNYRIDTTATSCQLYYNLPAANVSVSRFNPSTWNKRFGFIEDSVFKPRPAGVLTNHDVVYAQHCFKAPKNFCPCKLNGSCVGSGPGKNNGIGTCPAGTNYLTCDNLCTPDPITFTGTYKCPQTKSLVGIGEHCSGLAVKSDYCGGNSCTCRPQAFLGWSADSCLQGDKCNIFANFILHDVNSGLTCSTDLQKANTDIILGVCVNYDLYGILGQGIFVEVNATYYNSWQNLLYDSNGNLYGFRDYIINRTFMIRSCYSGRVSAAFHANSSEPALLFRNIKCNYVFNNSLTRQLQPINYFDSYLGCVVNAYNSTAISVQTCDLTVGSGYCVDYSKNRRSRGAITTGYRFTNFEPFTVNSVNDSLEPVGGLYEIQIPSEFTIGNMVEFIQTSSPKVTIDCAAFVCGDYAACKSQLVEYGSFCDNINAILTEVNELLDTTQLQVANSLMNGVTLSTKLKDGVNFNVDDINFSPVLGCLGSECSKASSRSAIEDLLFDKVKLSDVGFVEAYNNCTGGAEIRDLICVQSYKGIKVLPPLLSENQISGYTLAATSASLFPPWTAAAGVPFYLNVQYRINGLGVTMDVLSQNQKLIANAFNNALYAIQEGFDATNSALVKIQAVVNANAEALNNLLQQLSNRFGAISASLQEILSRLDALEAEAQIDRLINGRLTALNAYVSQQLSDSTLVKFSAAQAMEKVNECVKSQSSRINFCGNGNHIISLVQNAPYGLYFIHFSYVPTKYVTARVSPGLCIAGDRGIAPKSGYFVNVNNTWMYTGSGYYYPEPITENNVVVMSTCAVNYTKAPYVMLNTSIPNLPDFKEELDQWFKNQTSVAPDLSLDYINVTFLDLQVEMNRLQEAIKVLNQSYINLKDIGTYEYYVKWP
As to the kind of experiment: multiplex bead assay.

Assay [3] deals with T2, HCoV-229E spike antigens (bead panel) (HCoV-229E, UniProt P15423 16-1115).
T2 sequence: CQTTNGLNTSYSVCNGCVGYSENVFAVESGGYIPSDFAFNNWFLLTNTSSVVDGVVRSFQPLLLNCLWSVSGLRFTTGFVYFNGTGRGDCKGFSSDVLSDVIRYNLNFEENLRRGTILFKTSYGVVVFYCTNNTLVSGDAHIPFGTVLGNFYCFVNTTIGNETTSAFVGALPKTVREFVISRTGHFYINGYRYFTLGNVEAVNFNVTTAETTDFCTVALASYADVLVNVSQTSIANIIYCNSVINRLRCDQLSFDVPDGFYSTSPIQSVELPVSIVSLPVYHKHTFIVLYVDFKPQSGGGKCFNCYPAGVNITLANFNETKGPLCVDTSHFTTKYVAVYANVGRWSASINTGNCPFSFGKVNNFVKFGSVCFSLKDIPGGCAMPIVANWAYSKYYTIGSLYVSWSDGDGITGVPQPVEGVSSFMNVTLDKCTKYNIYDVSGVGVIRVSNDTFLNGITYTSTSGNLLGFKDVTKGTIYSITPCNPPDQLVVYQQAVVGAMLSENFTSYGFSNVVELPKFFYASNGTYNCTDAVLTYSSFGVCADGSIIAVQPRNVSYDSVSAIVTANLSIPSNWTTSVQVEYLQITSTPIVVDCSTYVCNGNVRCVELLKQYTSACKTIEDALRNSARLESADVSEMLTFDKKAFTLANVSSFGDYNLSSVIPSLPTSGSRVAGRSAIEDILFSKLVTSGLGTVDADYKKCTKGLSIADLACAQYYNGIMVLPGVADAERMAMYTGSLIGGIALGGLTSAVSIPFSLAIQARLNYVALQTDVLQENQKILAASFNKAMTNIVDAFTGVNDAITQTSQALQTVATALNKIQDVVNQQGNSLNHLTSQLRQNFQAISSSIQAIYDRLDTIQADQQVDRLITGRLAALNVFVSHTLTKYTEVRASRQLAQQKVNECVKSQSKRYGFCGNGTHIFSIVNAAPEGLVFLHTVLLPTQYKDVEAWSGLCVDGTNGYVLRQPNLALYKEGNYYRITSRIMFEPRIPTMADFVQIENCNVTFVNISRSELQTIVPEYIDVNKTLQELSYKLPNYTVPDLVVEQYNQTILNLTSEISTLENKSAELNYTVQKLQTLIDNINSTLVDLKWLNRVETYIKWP
As to the kind of experiment: multiplex bead assay.

Assay [4] deals with T3, MERS-CoV spike antigens (bead panel) (MERS-CoV, UniProt K9N5Q8 18-1296).
T3 sequence: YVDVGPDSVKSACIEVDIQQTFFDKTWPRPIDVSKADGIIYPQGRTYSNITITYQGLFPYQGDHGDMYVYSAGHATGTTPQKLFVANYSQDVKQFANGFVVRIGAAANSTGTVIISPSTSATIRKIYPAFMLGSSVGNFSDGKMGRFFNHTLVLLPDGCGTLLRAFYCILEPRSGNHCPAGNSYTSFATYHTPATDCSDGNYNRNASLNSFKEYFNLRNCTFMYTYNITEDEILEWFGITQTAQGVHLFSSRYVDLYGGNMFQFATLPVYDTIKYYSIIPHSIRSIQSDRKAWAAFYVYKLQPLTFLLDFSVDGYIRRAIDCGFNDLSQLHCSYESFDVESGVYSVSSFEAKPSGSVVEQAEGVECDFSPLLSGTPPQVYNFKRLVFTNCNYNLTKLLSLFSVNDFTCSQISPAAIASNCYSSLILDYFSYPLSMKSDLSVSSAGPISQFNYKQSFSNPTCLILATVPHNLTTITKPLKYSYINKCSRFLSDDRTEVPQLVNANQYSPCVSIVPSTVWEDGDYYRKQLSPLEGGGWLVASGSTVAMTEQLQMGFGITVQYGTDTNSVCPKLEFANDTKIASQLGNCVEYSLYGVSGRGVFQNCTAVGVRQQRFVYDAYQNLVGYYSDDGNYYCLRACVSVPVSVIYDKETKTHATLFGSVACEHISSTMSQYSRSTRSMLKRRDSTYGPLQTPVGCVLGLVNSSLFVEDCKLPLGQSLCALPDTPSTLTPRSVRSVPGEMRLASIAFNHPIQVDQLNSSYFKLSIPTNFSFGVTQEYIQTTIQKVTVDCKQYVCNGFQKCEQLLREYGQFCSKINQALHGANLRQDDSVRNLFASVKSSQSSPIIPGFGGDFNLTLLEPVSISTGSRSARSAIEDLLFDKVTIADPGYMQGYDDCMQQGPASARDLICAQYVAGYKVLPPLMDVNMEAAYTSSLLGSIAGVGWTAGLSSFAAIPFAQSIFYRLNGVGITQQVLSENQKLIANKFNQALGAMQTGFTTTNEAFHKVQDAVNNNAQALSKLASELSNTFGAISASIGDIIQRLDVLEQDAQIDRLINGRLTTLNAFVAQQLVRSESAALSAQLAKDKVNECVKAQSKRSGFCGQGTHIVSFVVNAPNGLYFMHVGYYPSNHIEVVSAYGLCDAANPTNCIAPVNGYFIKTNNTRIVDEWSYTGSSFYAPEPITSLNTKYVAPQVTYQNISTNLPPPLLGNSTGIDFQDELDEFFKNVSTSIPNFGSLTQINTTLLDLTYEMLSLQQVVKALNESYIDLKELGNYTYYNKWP
Nature of the assay: multiplex bead assay.

B1: COV_2151 (antibody, V domains shown)
VH: QVQLQESGPRLVKPSETLSLTCTVSGGSISGSNYFWGWIRQPPGKGLEWIGTIYYGGSTYYNPSLKSRVTISVDTSENQFSLKLSSVTAADTAVYYCANLAWLRGYFDYWGQGTLVTVSS
VL: NFMLTQPHSVSESPGKTVTISCTRSSGSIASNYVQWYQQRPGSAPTTVIYEDNQRPSGVPDRFSGSIDSSSNSVSLTISGLKTEDEADYYCQSYDSSNWVFGGGTKLTVL
notes: human IgG1
For B1, in assay [1], the “Mean IC50, pSV neutralization” value worked out at 0.12 µg/ml and the “Mean IC80, pSV neutralization” value is 1.21 µg/ml. Besides, in assay [2], the binding result is recorded as “no binding”.

B2: COV_2056 (SEQ ID NO:432/437) (antibody, V domains shown)
VH: EVQLVESGGGVVQPGRSLRLSCAASGFTFSIYGMHWVRQAPGKGLEWVALISYDGTNKYYADSVKGRFSISRDDSKNTLYLQMNSLRPEDTAVYYCAKVLMMGDSSGFSLGDAFDIWGQGTMVTVSS
VL: DIQMTQSPSSVSASVGDRVTITCRASQGISNWLAWYQQKPGKAPKLLIYAASSLQSGVPSRFSGSVSGTDFTLTISSLQPEDFATYYCQQANSFPLTFGGGTKVDIK
As for B2, in assay [1], the “Mean IC50, pSV neutralization” value came to 13.2 µg/ml and the “Mean IC80, pSV neutralization” value is ≥ 25 µg/ml. For the same molecule, the binding result in assay [2] is “no binding”.

B3: COV_1032 (antibody, V domains shown)
VH: QVHLQESGPGLVKPSETLSLTCTVSGGSISSYYWSWIRQPPGKGLEWIGYIYDSGSTNYNPSLKSRVTISVDTSKNQFSLKLSSVTAADTAVYYCARSVRGVTIDYWGQGTLVTVSS
VL: DIQMTQSPSSLSASVGDRVTITCRASQSISNSISSYLNWYQKKPGKAPKLLIYAASSLQSGVPSRFSGSGSGTDFTLTISSLQPEDFATYYCQQSYSTPTTFGQGTKVEIKR
notes: human IgG1
As for B3, in assay [1], the “Mean IC50, pSV neutralization” value stood at 2.5 µg/ml and the “Mean IC80, pSV neutralization” value was ≥ 25 µg/ml. The binding result in assay [3] is reported as “no binding”. In assay [4], the binding result is recorded as “no binding”.

B4: COV_2055 (antibody, V domains shown)
VH: EVQLVESGGGVVQPGRSLRLSCAASGFTLSSYGMHWVRQAPGKGLEWVAVISYEGSNKHYADSVKGRFTISRDNSKNTLYLQMNSLRAEDTAVYYCAKGSTNYFDHWGQGTLVTVSS
VL: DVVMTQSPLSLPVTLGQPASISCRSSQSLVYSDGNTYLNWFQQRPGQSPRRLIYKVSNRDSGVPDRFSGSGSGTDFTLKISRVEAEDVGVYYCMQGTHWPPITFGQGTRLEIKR
notes: human IgG1
Turning to B4, the binding result in assay [3] and in assay [4] was “no binding” each time.

These data come from patent US20240101645A1 (HENRY M JACKSON FOUNDATION FOR THE ADVANCEMENT OF MILITARY …, published 2024).
